B1: Cdt1 (natural protein)
chain: MSGTANSRRKEVLRVPVIDLNRVSDEEQLLPVVRAILLQHDTFLLKNYANKAVLDALLAGLTTKDLPDTSQGFDANFTGTLPLEDDVWLEQYIFDTDPQLRFDRKCRNESLCSIYSRLFKLGLFFAQLCVKSVVSSAELQDCISTSHYATKLTRYFNDNGSTHDGADAGATVLPTGDDFQYLFERDYVTFLPTGVLTIFPCAKAIRYKPSTMATTDNSWVSIDEPDCLLFHTGTLLARWSQGMHTTSPLQIDPRANIVSLTIWPPLTTPISSKGEGTIANHLLEQQIKAFPKVAQQYYPRELSILRLQDAMKFVKELFTVCETVLSLNALSRSTGVPPELHVLLPQISSMMKRKIVQDDILKLLTIWSDAYVVELNSRGELTMNLPKRDNLTTLTNKSRTLAFVERAESWYQQVIASKDEIMTDVPAFKINKRRSSSNSKTVLSSKVQTKSSNANALNNSRYLANSKENFMYKEKMPDSQANLMDRLRERERRSAALLSQRQKRYQQFLAMKMTQVFDILFSLTRGQPYTETYLSSLIVDSLQDSNNPIGTKEASEILAGLQGILPMDISVHQVDGGLKVYRWNSLDKNRFSKLLQIHKSKQQD
B2: Mcm7 (natural protein)
chain: MSAALPSIQLPVDYNNLFNEITDFLVTFKQDTLSSDATRNENEDENLDAENIEQHLLEKGPKYMAMLQKVANRELNSVIIDLDDILQYQNEKFLQGTQADDLVSAIQQNANHFTELFCRAIDNNMPLPTKEIDYKDDVLDVILNQRRLRNERMLSDRTNEIRSENLMDTTMDPPSSMNDALREVVEDETELFPPNLTRRYFLYFKPLSQNCARRYRKKAISSKPLSVRQIKGDFLGQLITVRGIITRVSDVKPAVEVIAYTCDQCGYEVFQEVNSRTFTPLSECTSEECSQNQTKGQLFMSTRASKFSAFQECKIQELSQQVPVGHIPRSLNIHVNGTLVRSLSPGDIVDVTGIFLPAPYTGFKALKAGLLTETYLEAQFVRQHKKKFASFSLTSDVEERVMELITSGDVYNRLAKSIAPEIYGNLDVKKALLLLLVGGVDKRVGDGMKIRGDINVCLMGDPGVAKSQLLKAICKISPRGVYTTGKGSSGVGLTAAVMKDPVTDEMILEGGALVLADNGICCIDEFDKMDESDRTAIHEVMEQQTISISKAGINTTLNARTSILAAANPLYGRYNPRLSPLDNINLPAALLSRFDILFLMLDIPSRDDDEKLAEHVTYVHMHNKQPDLDFTPVEPSKMREYIAYAKTKRPVMSEAVNDYVVQAYIRLRQDSKREMDSKFSFGQATPRTLLGIIRLSQALAKLRLADMVDIDDVEEALRLVRVSKESLYQETNKSKEDESPTTKIFTIIKKMLQETGKNTLSYENIVKTVRLRGFTMLQLSNCIQEYSYLNVWHLINEGNTLKFVDDGTMDTDQEDSLVSTPKLAPQTTASANVSAQDSDIDLQDA
B3: Orc1 (natural protein)
chain: MAKTLKDLQGWEIITTDEQGNIIDGGQKRLRRRGAKTEHYLKRSSDGIKLGRGDSVVMHNEAAGTYSVYMIQELRLNTLNNVVELWALTYLRWFEVNPLAHYRQFNPDANILNRPLNYYNKLFSETANKNELYLTAELAELQLFNFIRVANVMDGSKWEVLKGNVDPERDFTVRYICEPTGEKFVDINIEDVKAYIKKVEPREAQEYLKDLTLPSKKKEIKRGPQKKDKATQTAQISDAETRATDITDNEDGNEDESSDYESPSDIDVSEDMDSGEISADELEEEEDEEEDEDEEEKEARHTNSPRKRGRKIKLGKDDIDASVQPPPKKRGRKPKDPSKPRQMLLISSCRANNTPVIRKFTKKNVARAKKKYTPFSKRFKSIAAIPDLTSLPEFYGNSSELMASRFENKLKTTQKHQIVETIFSKVKKQLNSSYVKEEILKSANFQDYLPARENEFASIYLSAYSAIESDSATTIYVAGTPGVGKTLTVREVVKELLSSSAQREIPDFLYVEINGLKMVKPTDCYETLWNKVSGERLTWAASMESLEFYFKRVPKNKKKTIVVLLDELDAMVTKSQDIMYNFFNWTTYENAKLIVIAVANTMDLPERQLGNKITSRIGFTRIMFTGYTHEELKNIIDLRLKGLNDSFFYVDTKTGNAILIDAAGNDTTVKQTLPEDVRKVRLRMSADAIEIASRKVASVSGDARRALKVCKRAAEIAEKHYMAKHGYGYDGKTVIEDENEEQIYDDEDKDLIESNKAKDDNDDDDDNDGVQTVHITHVMKALNETLNSHVITFMTRLSFTAKLFIYALLNLMKKNGSQEQELGDIVDEIKLLIEVNGSNKFVMEIAKTLFQQGSDNISEQLRIISWDFVLNQLLDAGILFKQTMKNDRICCVKLNISVEEAKRAMNEDETLRNL
B4: Orc4 (natural protein)
chain: MTISEARLSPQVNLLPIKRHSNEEVEETAAILKKRTIDNEKCKDSDPGFGSLQRRLLQQLYGTLPTDEKIIFTYLQDCQQEIDRIIKQSIIQKESHSVILVGPRQSYKTYLLDYELSLLQQSYKEQFITIRLNGFIHSEQTAINGIATQLEQQLQKIHGSEEKIDDTSLETISSGSLTEVFEKILLLLDSTTKTRNEDSGEVDRESITKITVVFIFDEIDTFAGPVRQTLLYNLFDMVEHSRVPVCIFGCTTKLNILEYLEKRVKSRFSQRVIYMPQIQNLDDMVDAVRNLLTVRSEISPWVSQWNETLEKELSDPRSNLNRHIRMNFETFRSLPTLKNSIIPLVATSKNFGSLCTAIKSCSFLDIYNKNQLSNNLTGRLQSLSDLELAILISAARVALRAKDGSFNFNLAYAEYEKMIKAINSRIPTVAPTTNVGTGQSTFSIDNTIKLWLKKDVKNVWENLVQLDFFTEKSAVGLRDNATAAFYASNYQFQGTMIPFDLRSYQMQIILQELRRIIPKSNMYYSWTQL

Assays:
Test in all cases: cryo-EM structure
Mcm6 = Mcm6 (S. cerevisiae, UniProt P53091 1-1017)
Mcm6, sequence (P53091 whole entry): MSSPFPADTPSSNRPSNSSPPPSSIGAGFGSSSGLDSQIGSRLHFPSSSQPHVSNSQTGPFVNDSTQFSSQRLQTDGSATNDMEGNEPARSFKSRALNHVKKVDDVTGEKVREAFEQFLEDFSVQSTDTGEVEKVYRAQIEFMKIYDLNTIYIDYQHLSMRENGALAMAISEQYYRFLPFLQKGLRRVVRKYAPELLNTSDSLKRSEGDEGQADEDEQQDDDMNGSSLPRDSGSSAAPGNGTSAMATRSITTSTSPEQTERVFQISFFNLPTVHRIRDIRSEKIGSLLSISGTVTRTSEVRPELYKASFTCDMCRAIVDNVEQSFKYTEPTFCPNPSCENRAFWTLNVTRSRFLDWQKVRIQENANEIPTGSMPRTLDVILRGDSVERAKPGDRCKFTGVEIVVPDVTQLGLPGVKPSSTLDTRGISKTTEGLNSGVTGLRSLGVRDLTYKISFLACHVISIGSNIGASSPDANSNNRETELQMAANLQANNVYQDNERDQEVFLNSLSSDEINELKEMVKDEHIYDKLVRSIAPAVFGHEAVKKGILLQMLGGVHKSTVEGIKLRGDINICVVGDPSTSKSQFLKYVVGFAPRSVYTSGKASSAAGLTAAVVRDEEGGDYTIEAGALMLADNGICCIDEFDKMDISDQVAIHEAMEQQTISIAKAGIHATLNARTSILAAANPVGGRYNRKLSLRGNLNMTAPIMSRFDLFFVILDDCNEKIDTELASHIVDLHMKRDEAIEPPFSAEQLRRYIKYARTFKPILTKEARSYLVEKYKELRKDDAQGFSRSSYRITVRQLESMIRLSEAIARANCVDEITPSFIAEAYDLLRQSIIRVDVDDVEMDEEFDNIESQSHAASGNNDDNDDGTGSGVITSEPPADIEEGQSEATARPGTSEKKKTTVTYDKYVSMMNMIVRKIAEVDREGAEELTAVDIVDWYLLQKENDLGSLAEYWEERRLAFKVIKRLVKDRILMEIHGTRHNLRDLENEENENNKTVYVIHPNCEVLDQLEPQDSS

Mcm3 = Mcm3 (S. cerevisiae, UniProt P24279 1-971)
Mcm3, sequence (P24279 whole entry): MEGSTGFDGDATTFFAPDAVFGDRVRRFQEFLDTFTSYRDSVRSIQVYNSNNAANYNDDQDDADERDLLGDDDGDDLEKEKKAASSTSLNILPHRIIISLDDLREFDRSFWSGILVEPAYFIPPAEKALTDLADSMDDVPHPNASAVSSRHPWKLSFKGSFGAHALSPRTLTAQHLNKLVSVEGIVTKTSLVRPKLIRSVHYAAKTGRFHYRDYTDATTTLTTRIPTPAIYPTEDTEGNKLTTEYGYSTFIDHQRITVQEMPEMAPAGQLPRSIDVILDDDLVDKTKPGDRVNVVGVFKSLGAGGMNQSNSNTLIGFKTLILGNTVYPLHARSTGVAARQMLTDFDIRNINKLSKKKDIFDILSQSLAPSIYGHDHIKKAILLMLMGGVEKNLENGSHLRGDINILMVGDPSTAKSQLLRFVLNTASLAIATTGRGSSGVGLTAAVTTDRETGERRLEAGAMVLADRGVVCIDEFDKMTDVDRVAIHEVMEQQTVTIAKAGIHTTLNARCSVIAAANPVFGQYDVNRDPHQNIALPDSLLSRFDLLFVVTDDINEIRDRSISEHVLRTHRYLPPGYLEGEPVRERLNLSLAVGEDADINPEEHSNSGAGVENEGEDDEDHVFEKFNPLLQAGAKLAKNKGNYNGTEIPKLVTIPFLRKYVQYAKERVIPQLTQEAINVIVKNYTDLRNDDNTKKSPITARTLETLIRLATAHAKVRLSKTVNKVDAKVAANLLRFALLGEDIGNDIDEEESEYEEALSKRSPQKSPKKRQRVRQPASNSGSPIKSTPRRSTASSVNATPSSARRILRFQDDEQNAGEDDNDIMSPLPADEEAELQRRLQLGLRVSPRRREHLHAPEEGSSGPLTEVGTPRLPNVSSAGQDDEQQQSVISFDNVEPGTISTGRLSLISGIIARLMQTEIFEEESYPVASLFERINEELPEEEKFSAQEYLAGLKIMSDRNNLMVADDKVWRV

Mcm4 = target: T1, Mcm4 (S. cerevisiae, UniProt P30665 1-933)
T1 sequence: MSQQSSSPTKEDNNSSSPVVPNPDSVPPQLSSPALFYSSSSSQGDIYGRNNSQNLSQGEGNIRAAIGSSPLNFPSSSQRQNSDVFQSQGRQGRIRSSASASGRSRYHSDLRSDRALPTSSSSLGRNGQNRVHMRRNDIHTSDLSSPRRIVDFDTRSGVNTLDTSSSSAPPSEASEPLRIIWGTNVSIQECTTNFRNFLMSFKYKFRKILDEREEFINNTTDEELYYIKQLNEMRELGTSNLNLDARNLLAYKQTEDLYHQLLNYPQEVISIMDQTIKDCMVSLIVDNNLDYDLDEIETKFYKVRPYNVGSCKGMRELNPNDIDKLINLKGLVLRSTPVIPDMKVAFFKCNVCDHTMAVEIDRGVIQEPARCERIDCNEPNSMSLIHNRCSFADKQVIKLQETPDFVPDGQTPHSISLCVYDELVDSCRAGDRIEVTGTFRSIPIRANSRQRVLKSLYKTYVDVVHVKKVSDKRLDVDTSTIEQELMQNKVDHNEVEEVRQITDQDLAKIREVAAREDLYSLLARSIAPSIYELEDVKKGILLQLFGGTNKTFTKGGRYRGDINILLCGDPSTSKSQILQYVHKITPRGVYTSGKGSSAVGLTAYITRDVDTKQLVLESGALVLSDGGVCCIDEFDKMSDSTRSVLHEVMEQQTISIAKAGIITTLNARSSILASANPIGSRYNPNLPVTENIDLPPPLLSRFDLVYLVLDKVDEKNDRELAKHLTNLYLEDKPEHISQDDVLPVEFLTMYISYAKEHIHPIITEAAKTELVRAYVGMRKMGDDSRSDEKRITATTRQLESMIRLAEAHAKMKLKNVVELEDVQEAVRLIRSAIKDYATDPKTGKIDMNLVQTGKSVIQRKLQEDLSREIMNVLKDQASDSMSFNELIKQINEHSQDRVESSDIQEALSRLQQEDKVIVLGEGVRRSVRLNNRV

Cdt1 = target: B1
Orc1 = target: B3

Binder | binding result (Mcm6) | binding result (Mcm3) | binding result (Mcm4) | binding result (Cdt1) | binding result (Orc1)
B1 | binds |  |  |  | 
B2 |  | binds | binds |  | 
B3 |  |  | binds |  | 
B4 | binds |  |  | binds | binds

From paper PMC5503505 (Nature structural & molecular biology, 2017)
